Target: Schistosoma japonicum glutathione-S-transferase with mPyTK at position 52 (GST-E52mPyTK) (Schistosoma japonicum) [GST: P08515]
Assay: cross-linking

Schistosoma japonicum glutathione-S-transferase with mPyTK at position 52 (GST-E52mPyTK) (from UniProt P08515 2-218) (enzyme)
photo-cross-linking yield of the covalent dimer: 53%

— PMC5423124
